FireProtDB (doi:10.1126/science.aai7825)

B1: Phenylalanine--tRNA ligase alpha subunit wild type, P08312 (protein)
chain: MSHLAELVASAKAAISQASDVAALDNVRVEYLGKKGHLTLQMTTLRELPPEERPAAGAVINEAKEQVQQALNARKAELESAALNARLAAETIDVSLPGRRIENGGLHPVTRTIDRIESFFGELGFTVATGPEIEDDYHNFDALNIPGHHPARADHDTFWFDTTRLLRTQTSGVQIRTMKAQQPPIRIIAPGRVYRNDYDQTHTPMFHQMEGLIVDTNISFTNLKGTLHDFLRNFFEEDLQIRFRPSYFPFTEPSAEVDVMGKNGKWLEVLGCGMVHPNVLRNVGIDPEVYSGFAFGMGMERLTMLRYGVTDLRSFFENDLRFLKQFK
B2: UTP--glucose-1-phosphate uridylyltransferase wild type, P0AEP3 (protein)
chain: MAAINTKVKKAVIPVAGLGTRMLPATKAIPKEMLPLVDKPLIQYVVNECIAAGITEIVLVTHSSKNSIENHFDTSFELEAMLEKRVKRQLLDEVQSICPPHVTIMQVRQGLAKGLGHAVLCAHPVVGDEPVAVILPDVILDEYESDLSQDNLAEMIRRFDETGHSQIMVEPVADVTAYGVVDCKGVELAPGESVPMVGVVEKPKADVAPSNLAIVGRYVLSADIWPLLAKTPPGAGDEIQLTDAIDMLIEKETVEAYHMKGKSHDCGNKLGYMQAFVEYGIRHNTLGTEFKAWLEEEMGIKK
B3: Glucokinase wild type, P0A6V8 (protein)
chain: MTKYALVGDVGGTNARLALCDIASGEISQAKTYSGLDYPSLEAVIRVYLEEHKVEVKDGCIAIACPITGDWVAMTNHTWAFSIAEMKKNLGFSHLEIINDFTAVSMAIPMLKKEHLIQFGGAEPVEGKPIAVYGAGTGLGVAHLVHVDKRWVSLPGEGGHVDFAPNSEEEAIILEILRAEIGHVSAERVLSGPGLVNLYRAIVKADNRLPENLKPKDITERALADSCTDCRRALSLFCVIMGRFGGNLALNLGTFGGVFIAGGIVPRFLEFFKASGFRAAFEDKGRFKEYVHDIPVYLIVHDNPGLLGSGAHLRQTLGHIL
B4: dTDP-glucose 4,6-dehydratase 1 wild type, P37759 (protein)
chain: MKILVTGGAGFIGSAVVRHIINNTQDSVVNVDKLTYAGNRESLADVSDSERYVFEHADICDAPAMARIFAQHQPDAVMHLAAESHVDRSITGPAAFIETNIVGTYVLLEAARNYWSALDSDKKNSFRFHHISTDEVYGDLPHPDEVNNTEELPLFTETTAYAPSSPYSASKASSDHLVRAWKRTYGLPTIVTNCSNNYGPYHFPEKLIPLVILNALEGKALPIYGKGDQIRDWLYVEDHARALYTVVTEGKAGETYNIGGHNEKKNIDVVLTICDLLDEIVPKEKSYREQITYVADRPGHDRRYAIDAEKIGRALGWKPQETFESGIRKTVEWYLSNTKWVDNVKSGAYQSWIEQNYEGRQ
B5: Protein GrpE wild type, P09372 (protein)
chain: MSSKEQKTPEGQAPEEIIMDQHEEIEAVEPEASAEQVDPRDEKVANLEAQLAEAQTRERDGILRVKAEMENLRRRTELDIEKAHKFALEKFINELLPVIDSLDRALEVADKANPDMSAMVEGIELTLKSMLDVVRKFGVEVIAETNVPLDPNVHQAIAMVESDDVAPGNVLGIMQKGYTLNGRTIRAAMVTVAKAKA
B6: Probable ATP-dependent transporter SufC wild type, P77499 (protein)
chain: MLSIKDLHVSVEDKAILRGLSLDVHPGEVHAIMGPNGSGKSTLSATLAGREDYEVTGGTVEFKGKDLLALSPEDRAGEGIFMAFQYPVEIPGVSNQFFLQTALNAVRSYRGQETLDRFDFQDLMEEKIALLKMPEDLLTRSVNVGFSGGEKKRNDILQMAVLEPELCILDESDSGLDIDALKVVADGVNSLRDGKRSFIIVTHYQRILDYIKPDYVHVLYQGRIVKSGDFTLVKQLEEQGYGWLTEQQ
B7: Phosphoribosylaminoimidazole-succinocarboxamide synthase wild type, P0A7D7 (protein)
chain: MQKQAELYRGKAKTVYSTENPDLLVLEFRNDTSAGDGARIEQFDRKGMVNNKFNYFIMSKLAEAGIPTQMERLLSDTECLVKKLDMVPVECVVRNRAAGSLVKRLGIEEGIELNPPLFDLFLKNDAMHDPMVNESYCETFGWVSKENLARMKELTYKANDVLKKLFDDAGLILVDFKLEFGLYKGEVVLGDEFSPDGSRLWDKETLEKMDKDRFRQSLGGLIEAYEAVARRLGVQLD
B8: Formate-dependent phosphoribosylglycinamide formyltransferase wild type, P33221 (protein)
chain: MTLLGTALRPAATRVMLLGSGELGKEVAIECQRLGVEVIAVDRYADAPAMHVAHRSHVINMLDGDALRRVVELEKPHYIVPEIEAIATDMLIQLEEEGLNVVPCARATKLTMNREGIRRLAAEELQLPTSTYRFADSESLFREAVADIGYPCIVKPVMSSSGKGQTFIRSAEQLAQAWKYAQQGGRAGAGRVIVEGVVKFDFEITLLTVSAVDGVHFCAPVGHRQEDGDYRESWQPQQMSPLALERAQEIARKVVLALGGYGLFGVELFVCGDEVIFSEVSPRPHDTGMVTLISQDLSEFALHVRAFLGLPVGGIRQYGPAASAVILPQLTSQNVTFDNVQNAVGADLQIRLFGKPEIDGSRRLGVALATAESVVDAIERAKHAAGQVKVQG
B9: Phosphoribosylglycinamide formyltransferase wild type, P08179 (protein)
chain: MNIVVLISGNGSNLQAIIDACKTNKIKGTVRAVFSNKADAFGLERARQAGIATHTLIASAFDSREAYDRELIHEIDMYAPDVVVLAGFMRILSPAFVSHYAGRLLNIHPSLLPKYPGLHTHRQALENGDEEHGTSVHFVTDELDGGPVILQAKVPVFAGDSEDDITARVQTQEHAIYPLVISWFADGRLKMHENAAWLDGQRLPPQGYAADE
B10: Putative NAD(P)H nitroreductase YdjA wild type, P0ACY1 (protein)
chain: MDALELLINRRSASRLAEPAPTGEQLQNILRAGMRAPDHKSMQPWHFFVIEGEGRERFSAVLEQGAIAAGSDDKAIDKARNAPFRAPLIITVVAKCEENHKVPRWEQEMSAGCAVMAMQMAAVAQGFGGIWRSGALTESPVVREAFGCREQDKIVGFLYLGTPQLKASTSINVPDPTPFVTYF
B11: UDP-glucose 4-epimerase wild type, P09147 (protein)
chain: MRVLVTGGSGYIGSHTCVQLLQNGHDVIILDNLCNSKRSVLPVIERLGGKHPTFVEGDIRNEALMTEILHDHAIDTVIHFAGLKAVGESVQKPLEYYDNNVNGTLRLISAMRAANVKNFIFSSSATVYGDQPKIPYVESFPTGTPQSPYGKSKLMVEQILTDLQKAQPDWSIALLRYFNPVGAHPSGDMGEDPQGIPNNLMPYIAQVAVGRRDSLAIFGNDYPTEDGTGVRDYIHVMDLADGHVVAMEKLANKPGVHIYNLGAGVGNSVLDVVNAFSKACGKPVNYHFAPRREGDLPAYWADASKADRELNWRVTRTLDEMAQDTWHWQSRHPQGYPD
B12: dTDP-4-dehydrorhamnose 3,5-epimerase wild type, P37745 (protein)
chain: MNVIRTEIEDVLILEPRVFGDDRGFFYESFNQSAFEHILGYPVSFVQDNHSRSSKNVLRGLHFQRGEYAQDKLVRCTHGAVFDVAVDIRPNSVSFGKWVGVLLSADNKQQLWIPKGFAHGFLVLSDIAEFQYKTTNYYHPESDCGICWNDERIAIDWPQTSGLILSPKDERLFTLDELIRLKLIA
B13: Ribosomal small subunit pseudouridine synthase A wild type, P0AA43 (protein)
chain: MRLDKFIAQQLGVSRAIAGREIRGNRVTVDGEIVRNAAFKLLPEHDVAYDGNPLAQQHGPRYFMLNKPQGYVCSTDDPDHPTVLYFLDEPVAWKLHAAGRLDIDTTGLVLMTDDGQWSHRITSPRHHCEKTYLVTLESPVADDTAEQFAKGVQLHNEKDLTKPAVLEVITPTQVRLTISEGRYHQVKRMFAAVGNHVVELHRERIGGITLDADLAPGEYRPLTEEEIASVV
B14: GTPase ObgE/CgtA wild type, P42641 (protein)
chain: MKFVDEASILVVAGDGGNGCVSFRREKYIPKGGPDGGDGGDGGDVWMEADENLNTLIDYRFEKSFRAERGQNGASRDCTGKRGKDVTIKVPVGTRVIDQGTGETMGDMTKHGQRLLVAKGGWHGLGNTRFKSSVNRTPRQKTNGTPGDKRELLLELMLLADVGMLGMPNAGKSTFIRAVSAAKPKVADYPFTTLVPSLGVVRMDNEKSFVVADIPGLIEGAAEGAGLGIRFLKHLERCRVLLHLIDIDPIDGTDPVENARIIISELEKYSQDLATKPRWLVFNKIDLLDKVEAEEKAKAIAEALGWEDKYYLISAASGLGVKDLCWDVMTFIIENPVVQAEEAKQPEKVEFMWDDYHRQQLEEIAEEDDEDWDDDWDEDDEEGVEFIYKR
B15: Integration host factor subunit alpha wild type, P0A6X7 (protein)
chain: MALTKAEMSEYLFDKLGLSKRDAKELVELFFEEIRRALENGEQVKLSGFGNFDLRDKNQRPGRNPKTGEDIPITARRVVTFRPGQKLKSRVENASPKDE
B16: Transcriptional regulatory protein CusR wild type, P0ACZ8 (protein)
chain: MKLLIVEDEKKTGEYLTKGLTEAGFVVDLADNGLNGYHLAMTGDYDLIILDIMLPDVNGWDIVRMLRSANKGMPILLLTALGTIEHRVKGLELGADDYLVKPFAFAELLARVRTLLRRGAAVIIESQFQVADLMVDLVSRKVTRSGTRITLTSKEFTLLEFFLRHQGEVLPRSLIASQVWDMNFDSDTNAIDVAVKRLRGKIDNDFEPKLIQTVRGVGYMLEVPDGQ
B17: Mannosyl-3-phosphoglycerate phosphatase wild type, P76329 (protein)
chain: MFSIQQPLLVFSDLDGTLLDSHSYDWQPAAPWLTRLREANVPVILCSSKTSAEMLYLQKTLGLQGLPLIAENGAVIQLAEQWQEIDGFPRIISGISHGEISLVLNTLREKEHFKFTTFDDVDDATIAEWTGLSRSQAALTQLHEASVTLIWRDSDERMAQFTARLNELGLQFMQGARFWHVLDASAGKDQAANWIIATYQQLSGKRPTTLGLGDGPNDAPLLEVMDYAVIVKGLNREGVHLHDEDPARVWRTQREGPEGWREGLDHFFSAR

Details: Escherichia coli (strain K12); pH 7.5; Thermal; Intensity; HEPES 20mM; transition: 2; whole UniProt chain shown

Protein | Tm [°C]
B1 | 43.3
B2 | 45.6
B3 | 44.4
B4 | 44.3
B5 | 44
B6 | 44.9
B7 | 43.1
B8 | 43.4
B9 | 43.5
B10 | 45.3
B11 | 45
B12 | 44.2
B13 | 45
B14 | 44.5
B15 | 44.6
B16 | 43.7
B17 | 43.9
